The results in this text go back to a protein production outcome set (Wang et al. 2014).

The nature of this data set: label from the status in PepcDB records.
“MISVAQYLEAATRPNTERAYAAATRHFEIEWGGHLPTTAEQVARYLAAYAGQLALNTLRHRLAALAQWHQAHGFADPTRAPVVRKVLKGIQTVHPSQEKRATPLQLTQLGQVVDWLDGAATAAGTRDDAAGRLRHMRDRAFVLLGFWRGFRGDELVRLQVQDLELVAGEGMTCFLPHSKSDRQHAGTTYKVPALSRWCPVAATMAWVAAAALHEGPLFRAVNQWGGIAAAPLHPNSLVPLLRRIFREAGLSSPNDYSGHSLRRGFAGWANANGWDVKALMEYVGWRDVHSAMRYLDGADPFARQRIEASVSPATPPLLALAAPAPDPVPTTAVEATVTLTRFNSRVRGLAKAHRLIEQICLQPHQAQRLNADGTRYRLAIAAVDEAAFEETIAMLLDEMHRIADNHQCFLAVALRDEAGGRHWD”: the protein production result is given as “failed”.
The result for “MLIRPFLQYILGAVLLAYVLYPLQIRLETYVSPMLAALSLVTLAVTGFVAPVVVVLASIMESADRILREFGTDPVQLDILESRIKGLTGVEVDIAGELVSSGRDIGTIIVERSTQAFSTITFHLIGIALALFLIYYLLKDGDDLVDWLHRTVPLPVDVQRDFYAEIDDVMLGVLFGHVFVAIVQGIVAGVGLAATGVPNAMFWTAVMVVLAMVPLIGTIPVWGGAVIYLYATDEPLLAVGLFLYSVIIVGLTDDYLRPFAVDRYAKLNPAVILLGILGGAYAFGVMGLLFGPVVLGALKAALRVGLDTWSQIDDGNIG” reads “failed”; that for “STVVEIKSQDQFTQLTTTNAANKLIVLYFKAQWADPCKTMSQVLEAVSEKVRQEDVRFLSIDADEHPEISDLFEIAAVPYFVFIQNGTIVKEISAADPKEFVKSLEILSNASASLANNAKGPKSTSDEESSGSSDDEEDETEEEINARLVKLVQAAPVMLFMKGSPSEPKCGFSRQLVGILREHQIRFGFFDILRDENVRQSLKKFSDWPTFPQLYINGEFQGGLDIIKESIEEDPEYFQHALQ”, “not failed”.
With “MISNNPNHTEYDTWAWLYNQTMGPEYSQNQLKPLEKILLPQIKPNAKILDLCCGTGQLVQTLINRGYQITGVDNSSEMLNYARKNAPNGQFLLADARYFELPLSFDAAFSTSAALNHIMTIPELQQVFQRVYSALKENGWFLFDINHHQQMQRWWRGKIAEGEIENKYAWMVTPNYNPEERQGYFQVTMFQKKTKPSSARIIKIIWRLLSPILNHNLLYKLRIKLLSVFQAKEKNWQRMDEKYFVRGHIPEEIKIALQQTGFTDIQILTLEGNPTIDDRHSAYFLCRKPVNI”, the protein production entry is listed as “failed”.
Regarding “MRIDIVTIFPACLDPLRQSLPGKAIESGLVDLNVHDLRRWTHDVHHSVDDAPYGGGPGMVMKAPVWGEALDEICSSETLLIVPTPAGVLFTQATAQRWTTESHLVFACGRYEGIDQRVVQDAARRMRVEEVSIGDYVLPGGESAAVVMVEAVLRLLAGVLGNPASHQDDSHSTGLDGLLEGPSYTRPASWRGLDVPEVLLSGDHARIAAWRREVSLQRTRERRPDLSHPD”, the protein production entry is recorded as “failed”.
As to “MIRLAAIDVDGTLTDRDRLISTKAIESIRSAEKKGLTVSLLSGNVIPVVYALKIFLGINGPVFGENGGIMFDNDGSIKKFFSNEGTNKFLEEMSKRTSMRSILTNRWREASTGFDIDPEDVDYVRKEAESRGFVIFYSGYSWHLMNRGEDKAFAVNKLKEMYSLEYDEILVIGDSNNDMPMFQLPVRKACPANATDNIKAVSDFVSDYSYGEEIGQIFKHFELM”, the protein production entry is on record as “not failed”.
The value for “MTRTISRILVTGTSGQLGALVIEELLKKIHASHLIAAARDPKALMAFSRRGVETRLLDYTDQISIEAAFQGVERLLLVSSNVIDQRLVQHRNVIEAAARAGVGLFAYTSLLHADNSSLLLAKDHVQTEALLKGSGIPYVLLRNGWYTENYTDSIGAALVHGAVLGSAGTGRIAAATRADYAAAAAAILASDVDQAGRTYELAGDEAFTMPEYAAEIAQQSGKPVIYRDLPEAEYAAILMQVGLPESFAAILAQSDIGASQGALFDDSHQLSTLIGRPTTPLREVVAKALSAVR” was “failed”.
The value for “MNSPETTWTEENSSCALHLHWYALCERKDLVANSGVVAWLDGKQLALFYLPDTAQGEQLFAIDNRDPKSGANVIGRGLTGQIAGELVIASPLYKQHFRLHDGSCIEYPEQRLEVWPVRLNGERVEIAV” was “failed”; that for “IAKNNYKELIQNIIEESYTDSQFTLSVLSEKLDLSSGYLSIMFKKNFGIPFQDYLLQKRMEKAKLLLLTTELKNYEIAEQVGFEDVNYFITKFKKYYQITPKQYREMVLKNE” was “failed”.
With “MYQVAICDPIHAKGIQILEAQKDIVLHDYSKCPKKELLEKLTPMDALITRSMTPITSDFLKPLTHLKSIVRAGVGVDNIDLESCSQKGIVVMNIPTANTIAAVELTMAHLINAVRSFPCANDQIKHQRLWKREDWYGTELKNKKLGIIGFGNIGSRVGIRAKAFEMEVLAYDPYIPSSKATDLGVIYTKNFEDILQCDMITIHTPKNKETINMIGAKEIERMKKGVILLNCARGGLYNEDALYEALETKKVRWLGIDVFSKEPGIHNKLLDLPNVYATPHIGANTLESQEEISKQAAQGVMESLRGSSHPHALNLPMQAFDASAKAYLNLAQKLGYFSSQIHKGVCQKIELSLCGEINQFKDALVAFMLVGVLKPVVGDKINYINAPFVAKERGIEIKVSLKESASPYKNMLSLTLNAANGTISVSGTVFEEDILKLTEIDGFHIDIEPKGKMLLFRNTDIPGVIGSVGNAFARHGINIADFRLGRNTQKEALALIIVDEEVSLEVLEELKNIPACLSVHYVVI”, the protein production entry was “failed”.
Consider “MDVPSSWDALRKQARKIEAQLDEQMHSYRRLVSTKALSKSDGNESDLEAGIDLLLRQLQQVNAQMQAWVSSGGSEMVSHTLTRHQEILQDLTQEFYRHRSSLRAKQEHASLLEDFREFDRTRLDLEDGYGSEQALIKEHMGINRNTAQMDGVISQAQATLGTLVFQRSTFGGINSKLSNVASRLPTVNTILAAIKRKKSMDTIILSLVAAVCTFLIFIYWITK”, for which the protein production entry was “failed”.
The result for “MKNTKFSIKKIKNISNDPKVVHTKGALLEKMGKMESAIELYKSAALDNYVKSQYTLGNIYESKKQFKEAEKWYSMAYKSGSEDAAFDLGNMYYKLDGYEYAIYWYEKIANLGYLQAQNNLGVCHFKMKDFVRCEKWLKTAADKNLGKACFNLGVLYTFLEKDDEAYEYYKKGSVLLDDDAKYNLAILNGKKKDNKSTVSLYKQLYKSGHMKGCFNLGMIMEINDNLEDAEKYYKKSADRDDVKSEYRLAYVYDRKEELGDAIYYYEKAIEKNHTLSKYRLANLYNRENEIEKAKTYYKMAAEDDITEAKNNLAGIYFEEKDYENAIKYYEDAIAVGCKSSLENLGDLYYQNQDIEKAISYYSRIPNNVSCQIKLGNIYEDLNNIEEAISWYKKASENGDTRSSYRLGCIYESLGNTKNARKYFEMASSKNHMNARIHLGRIYFREGKLEESKMMFDTPANENNVYAQHMVGLIYDMFYKDYVNSKFWYEKARAQGCVESIYNLGQIYLKLNDDAEAEKYYKEGIKYGSKKCEYMLAGLYYKKSLDMYISLANEEYDNCEEIVEGFPNLNIDFDEVLIPPFKLQEEVIDEEEYVPIYILNIKESLDSMLEGLETEMIIDEEHDS” reads “failed”.
The value for “MERRLAAILIADVVGYSRLSQIDEEGTRARFQADQNDVFEPAIERHHGRLVKTMGDGLLVEFQSVVDALRCAVEVQQLKATQSAASLPEHRLEFRIGINLGDIIVEGEDIQGDGVNIADRIQALAEPGGIAISGTTYDQVKSKIPVGFASLGEQRLKSITEPIRVYRILLDPTAAGKTLKTRRRLPRRRLVAGIAAAIVVLALAGAALWWQPWMPAKPPGPGERFAYPLPDRPSVAVLPFINVSGDSEHDHLAEGLTDDLITELSKVSGLFVIARHSVFAIQGSVGKIQDVATELGVQYVLEGTLQRAGPRLRINVKLIDAVSGLSLWAERYDRQYADLFAVQDDVIGKIISALSVKLSARERDQLARIPTENLEAYDFYMRAEQEGFILRDVDTYRRTLSFYQKAIDLDPGFANAHAGIARVAVDVWRNDYNYLWSAAVARKIAYDAAGQALKLDPNNARAHTVLALLQWVDGRETEAKNSANMAVAMEPNDAEAAANLALILVHTGSSGQAITEMEKALRLDPSPASSFQLLAGIVFYTAGDDQRAISLIEPTLDSLPKVEPAREYLAAAYADQGNETKAAAETAKLLELFPEGNLTYYGYLYDYWRDGDLQRHLAALRKAGIPEWPFGFTGSQADRLGEADLRNLVDGKSWTGKHKNGTDFTQYFDRAGNTAYRSANTNITGIVEVRGDSLCEKFEGYFLDRMVCGYVYRNTSGEQRDRPYVHVTPRALTFFSPTP” was “failed”.
